Laboratory results taken from IntAct's records for PubMed 31515488.

B1: Caspase-9 (Homo sapiens), P55211 (parent)
chain: MDEADRRLLRRCRLRLVEELQVDQLWDALLSRELFRPHMIEDIQRAGSGSRRDQARQLIIDLETRGSQALPLFISCLEDTGQDMLASFLRTNRQAAKLSKPTLENLTPVVLRPEIRKPEVLRPETPRPVDIGSGGFGDVGALESLRGNADLAYILSMEPCGHCLIINNVNFCRESGLRTRTGSNIDCEKLRRRFSSLHFMVEVKGDLTAKKMVLALLELAQQDHGALDCCVVVILSHGCQASHLQFPGAVYGTDGCPVSVEKIVNIFNGTSCPSLGGKPKLFFIQACGGEQKDHGFEVASTSPEDESPGSNPEPDATPFQEGLRTFDQLDAISSLPTPSDIFVSYSTFPGFVSWRDPKSGSWYVETLDDIFEQWAHSEDLQSLLLRVANAVSVKGIYKQMPGCFNFLRKKLFFKTS
B2: Probable splicing factor YJU2B (Homo sapiens), P13994 (parent)
chain: MGERKGVNKYYPPDFNPEKHGSLNRYHNSHPLRERARKLSQGILIIRFEMPYNIWCDGCKNHIGMGVRYNAEKKKVGNYYTTPIYRFRMKCHLCVNYIEMQTDPANCDYVIVSGAQRKEERWDMADNEQVLTTEHEKKQKLETDAMFRLEHGEADRSTLKKALPTLSHIQEAQSAWKDDFALNSMLRRRFREKKKAIQEEEERDQALQAKASLTIPLVPETEDDRKLAALLKFHTLDSYEDKQKLKRTEIISRSWFPSAPGSASSSKVSGVLKKLAQSRRTALATSPITVGDLGIVRRRSRDVPESPQHAADTPKSGEPRVPEEAAQDRPMSPGDCPPETTETPKCSSPRGQEGSRQDKPLSPAGSSQEAADTPDTRHPCSLGSSLVADYSDSESE
B3: Angiomotin (Homo sapiens), Q4VCS5 (parent)
chain: MRNSEEQPSGGTTVLQRLLQEQLRYGNPSENRSLLAIHQQATGNGPPFPSGSGNPGPQSDVLSPQDHHQQLVAHAARQEPQGQEIQSENLIMEKQLSPRMQNNEELPTYEEAKVQSQYFRGQQHASVGAAFYVTGVTNQKMRTEGRPSVQRLNPGKMHQDEGLRDLKQGHVRSLSERLMQMSLATSGVKAHPPVTSAPLSPPQPNDLYKNPTSSSEFYKAQGPLPNQHSLKGMEHRGPPPEYPFKGMPPQSVVCKPQEPGHFYSEHRLNQPGRTEGQLMRYQHPPEYGAARPAQDISLPLSARNSQPHSPTSSLTSGGSLPLLQSPPSTRLSPARHPLVPNQGDHSAHLPRPQQHFLPNQAHQGDHYRLSQPGLSQQQQQQQQQHHHHHHHQQQQQQQPQQQPGEAYSAMPRAQPSSASYQPVPADPFAIVSRAQQMVEILSDENRNLRQELEGCYEKVARLQKVETEIQRVSEAYENLVKSSSKREALEKAMRNKLEGEIRRMHDFNRDLRERLETANKQLAEKEYEGSEDTRKTISQLFAKNKESQREKEKLEAELATARSTNEDQRRHIEIRDQALSNAQAKVVKLEEELKKKQVYVDKVEKMQQALVQLQAACEKREQLEHRLRTRLERELESLRIQQRQGNCQPTNVSEYNAAALMELLREKEERILALEADMTKWEQKYLEENVMRHFALDAAATVAAQRDTTVISHSPNTSYDTALEARIQKEEEEILMANKRCLDMEGRIKTLHAQIIEKDAMIKVLQQRSRKEPSKTEQLSCMRPAKSLMSISNAGSGLLSHSSTLTGSPIMEEKRDDKSWKGSLGILLGGDYRAEYVPSTPSPVPPSTPLLSAHSKTGSRDCSTQTERGTESNKTAAVAPISVPAPVAAAATAAAITATAATITTTMVAAAPVAVAAAAAPAAAAAPSPATAAATAAAVSPAAAGQIPAAASVASAAAVAPSAAAAAAVQVAPAAPAPVPAPALVPVPAPAAAQASAPAQTQAPTSAPAVAPTPAPTPTPAVAQAEVPASPATGPGPHRLSIPSLTCNPDKTDGPVFHSNTLERKTPIQILGQEPDAEMVEYLI
partner: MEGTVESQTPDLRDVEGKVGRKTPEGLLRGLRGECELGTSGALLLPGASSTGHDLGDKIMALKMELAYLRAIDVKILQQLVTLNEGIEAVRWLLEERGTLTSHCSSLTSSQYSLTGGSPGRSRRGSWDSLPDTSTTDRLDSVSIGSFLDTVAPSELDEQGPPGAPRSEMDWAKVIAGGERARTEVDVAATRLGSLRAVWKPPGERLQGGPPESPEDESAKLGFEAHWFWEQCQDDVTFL
B4: Pachytene checkpoint protein 2 homolog (Homo sapiens), Q15645 (parent)
chain: MDEAVGDLKQALPCVAESPTVHVEVHQRGSSTAKKEDINLSVRKLLNRHNIVFGDYTWTEFDEPFLTRNVQSVSIIDTELKVKDSQPIDLSACTVALHIFQLNEDGPSSENLEEETENIIAANHWVLPAAEFHGLWDSLVYDVEVKSHLLDYVMTTLLFSDKNVNSNLITWNRVVLLHGPPGTGKTSLCKALAQKLTIRLSSRYRYGQLIEINSHSLFSKWFSESGKLVTKMFQKIQDLIDDKDALVFVLIDEVESLTAARNACRAGTEPSDAIRVVNAVLTQIDQIKRHSNVVILTTSNITEKIDVAFVDRADIKQYIGPPSAAAIFKIYLSCLEELMKCQIIYPRQQLLTLRELEMIGFIENNVSKLSLLLNDISRKSEGLSGRVLRKLPFLAHALYVQAPTVTIEGFLQALSLAVDKQFEERKKLAAYI
partner: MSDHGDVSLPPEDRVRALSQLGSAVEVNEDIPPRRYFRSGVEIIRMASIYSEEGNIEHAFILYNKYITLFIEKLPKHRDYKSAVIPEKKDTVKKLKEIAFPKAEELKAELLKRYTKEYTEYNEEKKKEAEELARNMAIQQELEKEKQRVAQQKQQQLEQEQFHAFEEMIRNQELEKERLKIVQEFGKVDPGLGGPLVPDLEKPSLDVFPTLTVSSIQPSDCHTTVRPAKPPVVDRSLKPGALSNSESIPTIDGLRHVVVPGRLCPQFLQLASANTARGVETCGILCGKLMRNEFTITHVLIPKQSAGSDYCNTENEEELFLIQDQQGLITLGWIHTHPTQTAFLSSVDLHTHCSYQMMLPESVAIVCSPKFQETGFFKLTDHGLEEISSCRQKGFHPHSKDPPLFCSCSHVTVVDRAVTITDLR
B5: Isoform 1 of Aminoacylase-1 (Homo sapiens), Q03154-1 (parent)
chain: MTSKGPEEEHPSVTLFRQYLRIRTVQPKPDYGAAVAFFEETARQLGLGCQKVEVAPGYVVTVLTWPGTNPTLSSILLNSHTDVVPVFKEHWSHDPFEAFKDSEGYIYARGAQDMKCVSIQYLEAVRRLKVEGHRFPRTIHMTFVPDEEVGGHQGMELFVQRPEFHALRAGFALDEGIANPTDAFTVFYSERSPWWVRVTSTGRPGHASRFMEDTAAEKLHKVVNSILAFREKEWQRLQSNPHLKEGSVTSVNLTKLEGGVAYNVIPATMSASFDFRVAPDVDFKAFEEQLQSWCQAAGEGVTLEFAQKWMHPQVTPTDDSNPWWAAFSRVCKDMNLTLEPEIMPAATDNRYIRAVGVPALGFSPMNRTPVLLHDHDERLHEAVFLRGVDIYTRLLPALASVPALPSDS
B6: Transcription factor 12 (Homo sapiens), Q99081-3 (parent)
chain: MNPQQQRMAAIGTDKELSDLLDFSAMFSPPVNSGKTRPTTLGSSQFSGSGIDERGGTTSWGTSGQPSPSYDSSRGFTDSPHYSDHLNDSRLGAHEGLSPTPFMNSNLMGKTSERGSFSLYSRDTGLPGCQSSLLRQDLGLGSPAQLSSSGKPGTAYYSFSATSSRRRPLHDSAALDPLQAKKVRKVPPGLPSSVYAPSPNSDDFNRESPSYPSPKPPTSMFASTFFMQDGTHNSSDLWSSSNGMSQPGFGGILGTSTSHMSQSSSYGNLHSHDRLSYPPHSVSPTDINTSLPPMSSFHRGSTSSSPYVAASHTPPINGSDSILGTRGNAAGSSQTGDALGKALASIYSPDHTSSSFPSNPSTPVGSPSPLTGTSQWPRPGGQAPSSPSYENSLHSLKNRVEQQLHEHLQDAMSFLKDVCEQSRMEDRLDRLDDAIHVLRNHAVGPSTSLPAGHSDIHSLLGPSHNAPIGSLNSNYGGSSLVASSRSASMVGTHREDSVSLNGNHSVLSSTVTTSSTDLNHKTQENYRGGLQSQSGTVVTTEIKTENKEKDENLHEPPSSDDMKSDDESSQKDIKVSSRGRTSSTNEDEDLNPEQKIEREKERRMANNARERLRVRDINEAFKELGRMCQLHLKSEKPQTKLLILHQAVAVILSLEQQVRERNLNPKAACLKRREEEKVSAVSAEPPTTLPGTHPGLSETTNPMGHM
partner: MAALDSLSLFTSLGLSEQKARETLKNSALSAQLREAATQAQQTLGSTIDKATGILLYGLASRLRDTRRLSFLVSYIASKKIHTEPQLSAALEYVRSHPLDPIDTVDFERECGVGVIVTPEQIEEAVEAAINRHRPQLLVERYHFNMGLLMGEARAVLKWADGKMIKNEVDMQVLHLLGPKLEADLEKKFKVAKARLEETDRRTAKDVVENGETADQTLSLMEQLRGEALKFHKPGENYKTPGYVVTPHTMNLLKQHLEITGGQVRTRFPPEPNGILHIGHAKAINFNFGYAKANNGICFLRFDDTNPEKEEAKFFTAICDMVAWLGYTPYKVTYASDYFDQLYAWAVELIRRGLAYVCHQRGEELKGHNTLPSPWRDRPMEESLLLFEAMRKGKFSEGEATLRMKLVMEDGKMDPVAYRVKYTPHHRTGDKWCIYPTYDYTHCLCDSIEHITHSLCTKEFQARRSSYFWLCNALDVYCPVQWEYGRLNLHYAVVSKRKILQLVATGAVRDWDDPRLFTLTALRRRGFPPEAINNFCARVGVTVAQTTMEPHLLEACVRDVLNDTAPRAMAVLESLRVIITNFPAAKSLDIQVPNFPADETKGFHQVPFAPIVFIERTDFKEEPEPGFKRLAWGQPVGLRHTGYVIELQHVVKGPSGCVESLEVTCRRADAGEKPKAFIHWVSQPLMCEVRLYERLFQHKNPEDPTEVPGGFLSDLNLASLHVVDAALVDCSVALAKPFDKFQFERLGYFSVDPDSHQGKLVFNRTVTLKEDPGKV

Variants of: B1
Conditions: with birc2_human BIRC2, Q13490
Chain of birc2_human BIRC2, Q13490 (Q13490 whole entry): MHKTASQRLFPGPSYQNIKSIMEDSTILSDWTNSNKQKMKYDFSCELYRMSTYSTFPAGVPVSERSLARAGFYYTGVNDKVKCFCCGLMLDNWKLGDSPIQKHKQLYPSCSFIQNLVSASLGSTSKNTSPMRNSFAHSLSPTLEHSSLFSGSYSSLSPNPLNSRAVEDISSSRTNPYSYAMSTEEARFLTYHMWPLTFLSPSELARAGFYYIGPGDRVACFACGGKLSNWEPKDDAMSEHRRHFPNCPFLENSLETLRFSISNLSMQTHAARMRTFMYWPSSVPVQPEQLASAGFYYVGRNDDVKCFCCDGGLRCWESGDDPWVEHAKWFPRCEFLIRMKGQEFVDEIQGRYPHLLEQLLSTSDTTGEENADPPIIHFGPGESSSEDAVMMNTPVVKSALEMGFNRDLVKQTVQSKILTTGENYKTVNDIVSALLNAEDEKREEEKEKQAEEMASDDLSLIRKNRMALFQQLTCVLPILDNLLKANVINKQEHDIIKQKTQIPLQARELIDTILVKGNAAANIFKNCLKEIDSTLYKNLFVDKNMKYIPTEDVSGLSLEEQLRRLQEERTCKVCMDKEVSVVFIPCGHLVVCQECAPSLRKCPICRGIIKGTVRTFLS

Row | Variant | effect of a mutation on the interaction
1 | T366N | disrupting interaction strength
2 | Q221R | with no effect
3 | R173H | with no effect
4 | H237P | disrupting interaction strength

Variants of: B1
Conditions: with xiap_human XIAP

Row | Variant | effect of a mutation on the interaction
5 | Q221R | with no effect

Variants of: B2
Conditions: with znf24_human ZNF24, P17028
Chain of znf24_human ZNF24, P17028 (P17028 whole entry): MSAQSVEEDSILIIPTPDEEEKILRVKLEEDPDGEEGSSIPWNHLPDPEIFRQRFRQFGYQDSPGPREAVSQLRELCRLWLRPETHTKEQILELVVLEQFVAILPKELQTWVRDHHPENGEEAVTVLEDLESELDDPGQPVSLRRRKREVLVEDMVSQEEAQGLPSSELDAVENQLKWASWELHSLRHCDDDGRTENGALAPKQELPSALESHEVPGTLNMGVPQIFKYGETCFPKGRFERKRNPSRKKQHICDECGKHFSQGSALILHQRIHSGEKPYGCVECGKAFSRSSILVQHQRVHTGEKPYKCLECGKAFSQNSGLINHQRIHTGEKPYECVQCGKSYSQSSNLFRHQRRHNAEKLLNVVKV

Row | Variant | effect of a mutation on the interaction
6 | S22C | with no effect

Variants of: B2
Conditions: with traf2_human TRAF2, Q12933
Chain of traf2_human TRAF2, Q12933 (Q12933 whole entry): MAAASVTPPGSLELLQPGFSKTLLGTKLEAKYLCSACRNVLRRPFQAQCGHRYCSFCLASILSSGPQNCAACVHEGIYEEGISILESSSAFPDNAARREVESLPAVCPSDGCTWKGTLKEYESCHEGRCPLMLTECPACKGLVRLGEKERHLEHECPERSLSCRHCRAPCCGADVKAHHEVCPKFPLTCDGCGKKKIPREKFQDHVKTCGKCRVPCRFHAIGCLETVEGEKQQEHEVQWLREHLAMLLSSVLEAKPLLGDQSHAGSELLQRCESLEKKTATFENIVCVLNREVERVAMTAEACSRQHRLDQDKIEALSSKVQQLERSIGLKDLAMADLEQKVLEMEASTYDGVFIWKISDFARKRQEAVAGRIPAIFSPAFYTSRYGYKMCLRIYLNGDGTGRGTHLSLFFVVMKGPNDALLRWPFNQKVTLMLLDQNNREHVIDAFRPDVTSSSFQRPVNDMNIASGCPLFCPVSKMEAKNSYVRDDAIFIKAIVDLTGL

Row | Variant | effect of a mutation on the interaction
7 | S22C | with no effect

Variants of: B3
Conditions: with lura1_human LURAP1, Q96LR2

Row | Variant | effect of a mutation on the interaction
8 | T899A | with no effect

Variants of: B4
Conditions: with stabp_human STAMBP

Row | Variant | effect of a mutation on the interaction
9 | G409E | with no effect

Variants of: B5
Conditions: with 8odp_human NUDT1, P36639

Row | Variant | effect of a mutation on the interaction
10 | E381D | with no effect

Variants of: B5
Conditions: with 8odp_human NUDT1, P36639
Remark: another data set of the same source

Row | Variant | effect of a mutation on the interaction
11 | R197W | with no effect

Variants of: B6
Conditions: with syq_human QARS1, P47897

Row | Variant | effect of a mutation on the interaction
12 | Y120C | with no effect
